Assay results published in the RNAGym collection of RNA variant scans (doi:10.7554/elife.80360).

B1: HDV Ribozyme (parent)
chain: GGCCGGCAUGGUCCCAGCCUCCUCGCUGGCGCCGGCUGGGCAACAUUCCGAGGGGACCGUCCCCUCGGUAAUGGCGAAUGGGACCCA

Variants of: B1
Assay: self-cleavage, relative activity (ratio to wild type); higher = more cleavage; co-transcriptional

| Variant | self-cleavage |
| --- | --- |
| GGCCGGCAUGGACCCAGCCUCCUCGCUGGCGCAGGCUGGGCAACAUUCCGAGGGGACCGUCCCCUCGGUAAUGGCGAAUGGGACCCA | 0.0604 |
| GGCCGGCAUGGACCCAGCCUCCUCGCUGGCGCUGGCUGGGCAACAUUCCGAGGGGACCGUCCCCUCGGUAAUGGCGAAUGGGACCCA | 0.44 |
| GGCCGGCAUGGACCCAUCCUCCUCGCUGGCGCCGGCUGGGCAACAUUCCGAGGGGACCGUCCCCUCGGUAAUGGCGAAUGGGACCCA | 0.108 |
| GGCCGGCAUGGACCCAGCCUCCUCGCUGGCGCCGGCUGGGCAACAUUCCGAGGGGACCGUUCCCUCGGUAAUGGCGAAUGGGACCCA | 0.469 |
| GGCCGGCAUGGACCCAGCCUCCUCGCUGGCGCCGGCUGGGCAACAUUCCGAGGGGACCGUGCCCUCGGUAAUGGCGAAUGGGACCCA | 0.158 |
| GGCCGGCAUGGACCCAGCCUCCUCGCUGGCGCCGGCUGGGCAACAUUCCGAGGGGACCGUCCCGUCGGUAAUGGCGAAUGGGACCCA | 0.437 |
| GGCCGGCAUGGACCCAGCCUCCUCGCUGGCGCCGGCUGGGCAACAUUCCGAGGGGACCGUCCCCUCGGUAAUGGCGCAUGGGACCCA | 0.0755 |
| GGCCGGCAUGGACCCAGCCUCCUCGCUGGCGCCGGCUGGGCAACAUUCCGAGGGGACCGUCCCCUCGGUAAUGGCGGAUGGGACCCA | 0.151 |
| GGCCGGCAUGGACCCAGCCUCCUCGCUGGCGCCGGCUGGGCAACAUUCCGAGGGGACCGUCCCCUCGGUAAUGGCGUAUGGGACCCA | 0 |
| GGCCGGCAUGGACCCAGCCUCCUCGCUGGCGCCGGCUGGGCAACAUUCCGAGGGGACCGUCCGCUCGGUAAUGGCGAAUGGGACCCA | 0.293 |
| GGCCGGCAUGGACCCAGCCUCCUCGCUGGCGCCGGCUGGGCAACAUUCCGAGGGGACCGUCCCCUCGGUACUGGCGAAUGGGACCCA | 0.262 |
| GGCCGGCAUGGACCCAGCCUCCUCGCUGGCGCCGGCUGGGCAACAUUCCGAGGGGACCGUCCCCUCGGUAUUGGCGAAUGGGACCCA | 0.262 |
| GGCCGGCAUGGACCCAGCCUCCUCGCUGGCGCCGGCUGGGCAACAUUCCGAGGGGACCGUCCCCUCGGUAGUGGCGAAUGGGACCCA | 0 |
| GGCCGGCAUGGACCCAGCCUCCUCGGUGGCGCCGGCUGGGCAACAUUCCGAGGGGACCGUCCCCUCGGUAAUGGCGAAUGGGACCCA | 0.609 |
| GGCCGGCAUGGACCCAGCCUCCUCGCUUGCGCCGGCUGGGCAACAUUCCGAGGGGACCGUCCCCUCGGUAAUGGCGAAUGGGACCCA | 0.181 |
| GGCCGGCAUGGACCCAGCCUCCUCGCUAGCGCCGGCUGGGCAACAUUCCGAGGGGACCGUCCCCUCGGUAAUGGCGAAUGGGACCCA | 0.0314 |
| GGCCGGCAUGGAGCCAGCCUCCUCGCUGGCGCCGGCUGGGCAACAUUCCGAGGGGACCGUCCCCUCGGUAAUGGCGAAUGGGACCCA | 0 |
| GGCCGGCAUGGAACCAGCCUCCUCGCUGGCGCCGGCUGGGCAACAUUCCGAGGGGACCGUCCCCUCGGUAAUGGCGAAUGGGACCCA | 0.0378 |
| GGCCGGCAUGGACCCAGCCUCCUCGCUGGAGCCGGCUGGGCAACAUUCCGAGGGGACCGUCCCCUCGGUAAUGGCGAAUGGGACCCA | 0.0652 |
| GGCCGGCAUGGACCCAGCCUCCUCGCUGGGGCCGGCUGGGCAACAUUCCGAGGGGACCGUCCCCUCGGUAAUGGCGAAUGGGACCCA | 0.131 |
| GGCCGGCAUGGACCCAGCCUGCUCGCUGGCGCCGGCUGGGCAACAUUCCGAGGGGACCGUCCCCUCGGUAAUGGCGAAUGGGACCCA | 0.237 |
| GGCCGGCAUGGACCCAGCCUUCUCGCUGGCGCCGGCUGGGCAACAUUCCGAGGGGACCGUCCCCUCGGUAAUGGCGAAUGGGACCCA | 0.0831 |

| Variant | self-cleavage |
| --- | --- |
| GGCCGGCAUGGACCCAGCCUCCUCGCUGGCGCCGGCUGGGCAACAUUCCGAGGGGACCGUCCCCUCGGUAAUGGCGAAUGGGACCCC | 0.251 |
| GGCCGGCAUGGACCCAGCCUCCUCGCUGGCGCCGGCUGGGCAACAUUCCGAGGGGACCGUCCCCUCGGUAAUGGCGAAUGGGACCCU | 0.262 |
| GGCCGGCAUGGACCCAGCCUCCUCGCUGGCGCCGGCUGGGCAACAUUCCGAGGGGACCGUCCCCUCGGUAAUGGCGAAUGGGACCCG | 0.115 |
| GGCCGGCAUGGACCCAGCCUCCUCGCUGGCGCCGGCUGGGCAACCUUCCGAGGGGACCGUCCCCUCGGUAAUGGCGAAUGGGACCCA | 0 |
| GGCCGGCAUGGACCCAGCCUCCUCGCUGGCGCCGGCUGGGCAACUUUCCGAGGGGACCGUCCCCUCGGUAAUGGCGAAUGGGACCCA | 0 |
| GGCCGGCAUGGACCCAGCCUCCUCGCUGGCGCCGGCUGGGCAACGUUCCGAGGGGACCGUCCCCUCGGUAAUGGCGAAUGGGACCCA | 0.277 |
| GGCCGGCAUGGACCCAGCCUCCUCGCUGGCGCCGGCUGGGCAACAUUCCGAGGGGGCCGUCCCCUCGGUAAUGGCGAAUGGGACCCA | 0.196 |
| GGCCGGCAUGGACCCAGCCUCCUCGCUGGCGCCGGCUGGGCAACAUUCCGAGGGGCCCGUCCCCUCGGUAAUGGCGAAUGGGACCCA | 0.262 |
| GGCCGGCAUGGACCCAGCCUCCUCGCUGGCGCCGGCUGGGCAACAUUCCGAGGGGUCCGUCCCCUCGGUAAUGGCGAAUGGGACCCA | 0.403 |
| GGCCGGCAUGGACUCAGCCUCCUCGCUGGCGCCGGCUGGGCAACAUUCCGAGGGGACCGUCCCCUCGGUAAUGGCGAAUGGGACCCA | 0.332 |
| GGCCGGCAUGGACCCAGCCUCCUCGCUGGCGCCGGCUGGGCACCAUUCCGAGGGGACCGUCCCCUCGGUAAUGGCGAAUGGGACCCA | 0.161 |
| GGCCGGCAUGGACCCAGCCUCCUCGCUGGCGCCGGCUGGGCAGCAUUCCGAGGGGACCGUCCCCUCGGUAAUGGCGAAUGGGACCCA | 0.0831 |
| GGCCGGCAUGGACCCAGCCUCCUCGCUGGCGCCGGCUGGGCAAGAUUCCGAGGGGACCGUCCCCUCGGUAAUGGCGAAUGGGACCCA | 0.166 |
| GGCCGGCAUGGACCCAGCCUCCUCGCUGGCGCCGGCUGGGCAACAUUCCGAGGGGACCGUCCCCUUGGUAAUGGCGAAUGGGACCCA | 0.317 |
| GGCCGGCAUGGACCCAGCCUCCUCGCUGGCGCCGGCUGGGCAACAUUCCGAGGGGACCGUCCCCUCGGUAAUGGCGACUGGGACCCA | 0.123 |
| GGCCGGCAUGGACCCAGCCUCCUCGCUGGCGCCGGCUGGGCAACAUUCCGAGGGGACCGUCCCCUCGGUAAUGGCGAGUGGGACCCA | 0.237 |
| GGCCGGCAUGGACCCAGCCUCAUCGCUGGCGCCGGCUGGGCAACAUUCCGAGGGGACCGUCCCCUCGGUAAUGGCGAAUGGGACCCA | 0 |
| GGCCGGCAUGGACCCAGCCUCUUCGCUGGCGCCGGCUGGGCAACAUUCCGAGGGGACCGUCCCCUCGGUAAUGGCGAAUGGGACCCA | 0.0426 |
| GGCCGGCAUGGACCCAGCCUCCUCGCUGGCGCCGGCUGGGCAACAUUCCGAGGGGACCGUCCCCUCGGUAAUGGCGAAUGGGACCAA | 0.623 |
| GGCCGGCAUGGACCCAGCGUCCUCGCUGGCGCCGGCUGGGCAACAUUCCGAGGGGACCGUCCCCUCGGUAAUGGCGAAUGGGACCCA | 0 |
| GGCCGGCAUGGACCCAGCCUCCUGGCUGGCGCCGGCUGGGCAACAUUCCGAGGGGACCGUCCCCUCGGUAAUGGCGAAUGGGACCCA | 0.0437 |
| GGCCGGCAUGGACCCAGCCUCCUUGCUGGCGCCGGCUGGGCAACAUUCCGAGGGGACCGUCCCCUCGGUAAUGGCGAAUGGGACCCA | 0.135 |

| Variant | self-cleavage |
| --- | --- |
| GGCCGGCAUGGACCCAGCCUCCUCGCUGGCGCCGGAUGGGCAACAUUCCGAGGGGACCGUCCCCUCGGUAAUGGCGAAUGGGACCCA | 0.0992 |
| GGCCGGCAUGGACCCAGCCUCCUCGCUGGCGCCGGGUGGGCAACAUUCCGAGGGGACCGUCCCCUCGGUAAUGGCGAAUGGGACCCA | 0.0707 |
| GGCCGGCAUGGACCCAGCCUCCUCGCUGGCGCCGGCUGGGAAACAUUCCGAGGGGACCGUCCCCUCGGUAAUGGCGAAUGGGACCCA | 0.437 |
| GGCCGGCAUGGACCCAGCCUCCUCGCUGGCGCCGGCUGGGCAACAUUCCGAGGGGACCGUCCCCUCGGUAAUGGCGAAUGGGACACA | 0.383 |
| GGCCGGCAUGGACCCAGCCUCCUCGCUGGCGCCGGCUGGGCAACAUUCCGAGGGGACCGUCCCCUCGGUAAUGGCGAAUGGGACGCA | 0.208 |
| GGCCGGCAUGGACCCAGCCUCCUCGCUGGCGCCGGCUGGGCAACAUUCCGAGGGGACCGUCCCCUCGGUAAUGGCGAAUGGGACUCA | 0.481 |
| GGCCGGCAUGGACCCAGACUCCUCGCUGGCGCCGGCUGGGCAACAUUCCGAGGGGACCGUCCCCUCGGUAAUGGCGAAUGGGACCCA | 0.0604 |
| GGCCGGCAUGGACCCAGUCUCCUCGCUGGCGCCGGCUGGGCAACAUUCCGAGGGGACCGUCCCCUCGGUAAUGGCGAAUGGGACCCA | 0.217 |
| GGCCGGCAUGGACCCAGCCUCCUCGCUGGCGCCGGCUGGGCAACAUUCGGAGGGGACCGUCCCCUCGGUAAUGGCGAAUGGGACCCA | 0.115 |
| GGCCGGCAUGGACCCAGCCUCCUCGCUGGCGCCGGCUGGGCAACAUUCCGAGGGGACUGUCCCCUCGGUAAUGGCGAAUGGGACCCA | 0.302 |
| GGCCGGCAUGGACCCAGCCUCCUCCCUGGCGCCGGCUGGGCAACAUUCCGAGGGGACCGUCCCCUCGGUAAUGGCGAAUGGGACCCA | 0.17 |
| GGCCGGCAUGGACCCAGCCUCCUCUCUGGCGCCGGCUGGGCAACAUUCCGAGGGGACCGUCCCCUCGGUAAUGGCGAAUGGGACCCA | 0.133 |
| GGCCGGCAUGGACCCAGCCUCCUCGCUGGCGCCGGCUGGGCAACAUUUCGAGGGGACCGUCCCCUCGGUAAUGGCGAAUGGGACCCA | 0.277 |
| GGCCGGCAUGGACCCAGCCUCCUCGCUGGCGCCGGCUGGGCAACAUUACGAGGGGACCGUCCCCUCGGUAAUGGCGAAUGGGACCCA | 0.244 |
| GGCCGGCAUGGACCCAGCCUCCUCGCUGGCGCCGGCUGGGCAACAUUCCGAGGGGACCGUCCCCUCGGUUAUGGCGAAUGGGACCCA | 0.332 |
| GGCCGGCAUGGACCCAGCCUCCUCGCUGGCGCCGGCUGGGCAACAUUCCGAGGGGACCGUCCCCUCGGUGAUGGCGAAUGGGACCCA | 0.277 |
| GGCCGGCAUGGACCCAGCCUCCUCGCUGGCGCCGGCUGGGCAACAUUCCGAGGGGACCGUCCCCUCGGUAAUGGCGAAUGGGAUCCA | 0.519 |
| GGCCGGCAUGGACCCAGCCUCCUCGCUGGCGCCGGCUGGGCAACAUUCCGAGGGGACCGUCCCCUCGGUAAUGGCGAAUGGGAGCCA | 0.554 |
| GGCCGGCAUGGACCCAGCCUCCUCGCUGGCGCCGGCUGGGCAACAUUCCGUGGGGACCGUCCCCUCGGUAAUGGCGAAUGGGACCCA | 0.277 |
| GGCCGGCAUGGACCCAGCCUCCUCGCUGGCGCCGGCUGGGCAACAUUCCGCGGGGACCGUCCCCUCGGUAAUGGCGAAUGGGACCCA | 0.237 |
